One block for each molecule: values may come before it.
B1: cyclin-dependent kinase inhibitor 3 (CDKN3), endogenous in LC319 cells (enzyme)
chain: MKPPSSIQTSEFDSSDEEPIEDEQTPIHISWLSLSRVNCSQFLGLCALPGCKFKDVRRNVQKDTEELKSCGIQDIFVFCTRGELSKYRVPNLLDLYQQCGIITHHHPIADGGTPDIASCCEIMEELTTCLKNYRKTLIHCYGGLGRSCLVAACLLLYLSDTISPEQAIDSLRDLRGSGAIQTIKQYNYLHEFRDKLAAHLSSRDSQSRSVSR
notes: Endogenous protein in extracts of the human lung cancer cell line LC319; also called KAP; KAP1

Legend:
[1] = biological target: T1, eukaryotic translation elongation factor 1 delta (EF-1delta), endogenous (human, UniProt P29692 2-281); assay: co-immunoprecipitation with anti-CDKN3 monoclonal antibody from LC319 extracts, silver stain, MALDI-TOF-MS
T1 construct: Endogenous 31-kDa protein of LC319 cells
T1 sequence: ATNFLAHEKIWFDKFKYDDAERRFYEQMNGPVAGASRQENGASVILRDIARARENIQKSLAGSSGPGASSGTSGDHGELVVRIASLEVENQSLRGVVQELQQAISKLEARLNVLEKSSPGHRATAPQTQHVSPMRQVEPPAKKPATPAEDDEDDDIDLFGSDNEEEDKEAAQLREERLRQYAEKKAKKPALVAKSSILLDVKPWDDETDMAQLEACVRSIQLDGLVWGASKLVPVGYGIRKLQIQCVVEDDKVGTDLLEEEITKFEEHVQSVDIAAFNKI
Protocol: Cell extracts from lung-cancer cell line LC319 were pre-cleared by incubation at 4 degree Centigrade for 1 hour with 100 micro L of protein G-agarose beads in a final volume of 2 ml of immunoprecipitation buffer [0.5% NP-40, 50 mM Tris-HCl, 150 mM NaCl] in the presence of protease inhibitor. After centrifugation at 1000 rpm for 5 min at 4 degree Centigrade, the supernatant was incubated at 4 degree Centigrade with anti-CDKN3 monoclonal antibody or normal mouse IgG, for 2 hours. The beads were then collected by centrifugation at 5000 rpm for 2 min and washed six times with 1 ml of each immunoprecipitation buffer. The washed beads were resuspended in 50 micro L of Laemmli sample buffer and boiled for 5 min, and the proteins were separated by 5-10% SDS PAGE gels (BIO RAD). After electrophoresis, the gels were stained with silver. Protein bands specifically found in extracts immunoprecipitated with anti-CDKN3 monoclonal antibody were excised and served for matrix-assisted laser desorption/ionization-time of flight mass spectrometry (MALDI-TOF-MS) analysis (AXIMA-CFR plus, SHIMADZU BIOTECH).

[2] = biological target: B1; assay: co-immunoprecipitation with monoclonal anti-Flag antibody from LC319 cells
Text: The biological importance of the association of these two proteins and its potential as a therapeutic target for lung cancer was subsequently investigated. To determine the domain in EF-1delta that is required for interaction with CDKN3, each construct of EF-1delta with FLAG-HA-sequence at its N- and C-terminals were transfected into LC319 cells (EF-1delta72-160, EF-1delta161-281, EF-1delta1-160, EF-1delta72-281, and full-length EF-1delta1-281; FIG. 21B).

COS-7 cells = assay: Autocrine assay: COS-7 cells incubated with recombinant NPTX1 protein, MTT; format: cell-based; conditions: NPTX1 at final concentration of 0.1 nM to 1 nM, compared with control
Text: FIG. 10. Presents the autocrine cellular growth effect of NPTX1. Part A depicts the inhibition of growth of lung cancer cells by siRNA against NPTX1. The upper panels of Part A depict the expression of NPTX1 in response to si-NPTX1s (si-1, -2) or control siRNAs (LUC or SCR) in A549 and SBC-5 cells, analyzed by RT-PCR analysis. The middle panels of Part A present images of colonies examined by colony-formation assays of the A549 and SBC-5 cells transfected with specific siRNAs for NPTX1 or control plasmids. The bottom panels of Part A present the viability of the A549 or SBC-5 cells evaluated by MTT assay in response to si-NPTX1s, -LUC, or -SCR. All assays were performed three times, and in triplicate wells. Part B presents growth-promoting effect of NPTX1 transiently overexpressed in COS-7 cells. Top panel, Transient expression of NPTX1 in COS-7 cells, detected by Western blot analysis. The bottom panels, Viability of the COS-7 cells evaluated by MTT (left) and colony formation assays (right). C, Left panel, Autocrine/paracrine effect of NPTX1 on the growth of mammalian cells. Cell viability counted by MTT assays (COS-7 cells treated with NPTX1 in final concentrations of 0, 0.1, or 1 nM) (right lanes indicated by PBS). […]

[3] = biological target: T2, neuronal pentraxin receptor (NPTXR), endogenous on SBC-5 lung cancer cells (human, UniProt O95502 1-500); assay: immunocytochemistry of recipient SBC-5 cells incubated 3 hours with conditioned medium of NPTX1-transfected donor cells
T2 construct: Endogenous NPTXR of the human SCLC cell line SBC-5
T2 sequence: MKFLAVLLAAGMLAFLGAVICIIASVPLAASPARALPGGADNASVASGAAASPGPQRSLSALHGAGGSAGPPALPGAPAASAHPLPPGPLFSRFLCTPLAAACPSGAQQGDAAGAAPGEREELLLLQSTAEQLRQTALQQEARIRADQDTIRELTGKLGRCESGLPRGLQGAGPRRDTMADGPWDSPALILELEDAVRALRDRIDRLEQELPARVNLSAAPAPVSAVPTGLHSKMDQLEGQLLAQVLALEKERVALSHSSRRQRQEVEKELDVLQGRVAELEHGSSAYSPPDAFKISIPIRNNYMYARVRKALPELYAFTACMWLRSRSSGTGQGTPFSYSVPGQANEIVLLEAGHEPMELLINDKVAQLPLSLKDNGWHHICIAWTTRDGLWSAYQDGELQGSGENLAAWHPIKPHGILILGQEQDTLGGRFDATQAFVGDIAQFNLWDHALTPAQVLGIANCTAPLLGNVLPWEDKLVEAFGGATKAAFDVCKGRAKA
Protocol: FIG. 14: Presents internalization of NPTX1 after binding with NPTXR Part A, B, Recipient COS-7 cells (A) or SBC-5 cells (B) were incubated with conditioned medium from NPTX1-transfected (+) donor COS-7 cells or SBC-5 cells, respectively. c-myc-tagged NPTX1 was detected 3 hours after treatment of recipient cells with donor's conditioned medium. Green: NPTX1. Nuclei were visualized by DAPI. (a) Cells were stained for extracellular surface staining with anti-myc antibody for detecting NPTX1. (b) Cells were permialized by Triton X-100 and stained for NPTX1 (myc). (c) 3 hours treatment with PBS. […] 1 or 3 hours after treatment of recipient COS-7 cells with conditioned medium from donor NPTX1-transfected (+) COS-7 cells, internalized NPTX1 was detected by western blotting using anti-myc antibodies.
To determine the mechanism involved in the regulation of NPTX1/NPTXR signaling, the present inventors examined whether NPTX1/NPTXR could be internalized when cells were exposed to secreted NPTX1, through confocal microscopy observation of the subcellular distribution of the NPTX1 and NPTXR. […] The present Mentors detected binding of NPTX1 to the surface of these cells by immunocytochemistry (FIGS. 14A and 14B). […] Then, immunocytochemistry was done under membrane-permeabilizing conditions and we detected internalized exogenous NPTX1 (FIGS. 14A and 14B). […]

Molecule: B1
binding result [1]: binds

binding result [2]: no binding
B2: EF-1delta161-281 (FLAG-HA-tagged deletion construct) (other, not shown: small tags and cut ends)
chain: GSDNEEEDKEAAQLREERLRQYAEKKAKKPALVAKSSILLDVKPWDDETDMAQLEACVRSIQLDGLVWGASKLVPVGYGIRKLQIQCVVEDDKVGTDLLEEEITKFEEHVQSVDIAAFNKI
notes: Lacks the N-terminal 160 amino acids of EF-1delta; also called EF-1delta 161-281 construct

binding result [3]: binds
B3: myc/His-tagged NPTX1 (pcDNA3.1-NPTX1-myc/His) (ligand)
chain: QDFGPTRFICTSVPVDADMCAASVAAGGAEELRSSVLQLRETVLQQKETILSQKETIRELTAKLGRCESQSTLDPGAGEARAGGGRKQPGSGKNTMGDLSRTPAAETLSQLGQTLQSLKTRLENLEQYSRLNSSSQTNSLKDLLQSKIDELERQVLSRVNTLEEGKGGPRNDTEERVKIETALTSLHQRISELEKGQKDNRPGDKFQLTFPLRTNYMYAKVKKSLPEMYAFTVCMWLKSSATPGVGTPFSYAVPGQANELVLIEWGNNPMEILINDKVAKLPFVINDGKWHHICVTWTTRDGVWEAYQDGTQGGSGENLAPYHPIKPQGVLVLGQEQDTLGGGFDATQAFVGELAHFNIWDRKLTPGEVYNLATCSTKALSGNVIAWAESHIEIYGGATKWTFEACRQIN
notes: also called c-myc-tagged NPTX1; exogenous NPTX1; not shown: myc-His tag of the pcDNA3.1 myc-His vector
COS-7 cell growth by MTT assays (COS-7 cells): enhancement of the cell growth

— US20110152345A1, “EBI3, DLX5, NPTX1 AND CDKN3 FOR TARGET GENES OF LUNG CANCER THERAPY AND DIAGNOSIS” (Oncotherapy Science, Inc., priority 2007, published 2011)
